Data from patent US20240279356A1 (Xencor, published 2024).
Positions count from the first letter of the chain named. In names and notes the source's numbering stands. Blank lines part the entries; values can stand above or below the binder they belong to.

Experiments:
human MSLN antigen [1] = target: T1, human MSLN antigen (human, UniProt Q13421 296-580, limits assumed); experiment: Octet BLI; bsAb on anti-human Fc sensor, human MSLN as analyte, one concentration
T1 construct: Soluble antigen for BLI; also called Mesothelin; MESO
Text: (§1) Variants of MESO-C were engineered by introducing point substitutions into the variable heavy region (VH) and the variable light region (VL) to generate 11 VH variants and 16 VL variants (sequences for which are depicted in FIG. 18 as H1.1-H1.13 and in FIG. 19 as L1.1-L1.18). An additional 4 VL variants were generated by combining useful point substitutions (sequences for which are depicted in FIG. 19 as L1.19-L1.22). WT and variant variable heavy regions were paired with WT and variant variable light regions to generate variant variable regions (Fvs) which were produced in the context of anti-MSLN×anti-CD3 bispecific antibodies. The bispecific antibodies were screened for MSLN binding affinity using Octet®, a BioLayer Interferometry (BLI)-based method. Experimental steps for Octet® generally include the following: Immobilization (capture of ligand to a biosensor); Association (dipping of ligand-coated biosensors into wells containing the analyte); and Dissociation (returning of biosensors to well containing buffer). In an initial screening, anti-human Fc sensors were used to capture the bispecific mAbs and dipped into human MSLN antigen (one concentration to screen large library). The resulting dissociation constant of illustrative variants (KD), association rate (kₐ), dissociation rate (kd), as well as sensorgram response are depicted in FIG. 20. In further screening of favorite variants identified in the initial screen (and combination variants), bispecific mAbs were dipped into multiple concentrations of human MSLN antigen, data for which are depicted in FIG. 21 (from various screens).

cyno MSLN = target: T2, cyno MSLN (Macaca fascicularis (cynomolgus)); experiment: Octet BLI; bsAb on anti-human Fc sensor, cyno MSLN as analyte, one concentration
T2 construct: soluble antigen for Octet; also called cynomolgus MSLN

human MSLN antigen [2] = target: T1, human MSLN antigen; experiment: Octet BLI; bsAb on anti-human Fc sensor, human MSLN as analyte, several concentrations
Text: as §1

T1 sequence (Q13421 other isoform, or with tags, fused parts or gaps limits assumed): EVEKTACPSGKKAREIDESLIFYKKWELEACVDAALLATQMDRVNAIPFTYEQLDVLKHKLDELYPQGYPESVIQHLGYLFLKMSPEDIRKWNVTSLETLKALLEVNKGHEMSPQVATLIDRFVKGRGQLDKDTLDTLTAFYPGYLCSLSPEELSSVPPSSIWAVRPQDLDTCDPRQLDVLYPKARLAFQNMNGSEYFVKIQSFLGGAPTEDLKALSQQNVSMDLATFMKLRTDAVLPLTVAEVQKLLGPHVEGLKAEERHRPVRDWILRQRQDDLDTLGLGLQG

Kd (human MSLN antigen [1]): 0.0805 nM
Response (human MSLN antigen [1]): 0.86
koff (human MSLN antigen [1]): 4.69e-05 s⁻¹
kon (human MSLN antigen [1]): 583000 M⁻¹ s⁻¹
Kd (cyno MSLN): 0.0938 nM
Response (cyno MSLN): 0.737
koff (cyno MSLN): 5.74e-05 s⁻¹
kon (cyno MSLN): 612000 M⁻¹ s⁻¹
B1: XENP31701 (bispecific antibody)
heavy: QVQLVQSGAEVKKPGASVKVSCKASGYTFTSYWMHWVRQAPGQGLEWMGMIHPNSDNTIYYEKFQGRVTMTVDKSISTAYMELSRLRSDDTAVYYCAIIITPVVPKFDYWGQGTLVTVSSASTKGPSVFPLAPSSKSTSGGTAALGCLVKDYFPEPVTVSWNSGALTSGVHTFPAVLQSSGLYSLSSVVTVPSSSLGTQTYICNVNHKPSDTKVDKKVEPKSCDKTHTCPPCPAPPVAGPSVFLFPPKPKDTLMISRTPEVTCVVVDVKHEDPEVKFNWYVDGVEVHNAKTKPREEEYNSTYRVVSVLTVLHQDWLNGKEYKCKVSNKALPAPIEKTISKAKGQPREPQVYTLPPSREEMTKNQVSLTCDVSGFYPSDIAVEWESDGQPENNYKTTPPVLDSDGSFFLYSKLTVDKSRWEQGDVFSCSVMHEALHNHYTQKSLSLSPGK
scFv-Fc: not shown
light: DIVMTQSPDSLAVSLGERATINCKASHDVGTSVAWYQQKPGQSPKLLIYWASTRHTGVPDRFTGSGSGTDFTLTISSLQAEDVAVYFCQQYSSYPLTFGAGTKLEIKRTVAAPSVFIFPPSDEQLKSGTASVVCLLNNFYPREAKVQWKVDNALQSGNSQESVTEQDSKDSTYSLSSTLTLSKADYEKHKVYACEVTHQGLSSPVTKSFNRGEC
notes: VH WT, VL WT; also called MESO-C H1_L1; copies: 1 + 1 + 1

Kd (human MSLN antigen [1]): 0.103 nM
Response (human MSLN antigen [1]): 0.981
koff (human MSLN antigen [1]): 7.35e-05 s⁻¹
kon (human MSLN antigen [1]): 717000 M⁻¹ s⁻¹
Kd (cyno MSLN): 0.155 nM
Response (cyno MSLN): 0.95
koff (cyno MSLN): 0.000105 s⁻¹
kon (cyno MSLN): 676000 M⁻¹ s⁻¹
B2: XENP32570 (bispecific antibody)
heavy: B1 heavy with D56G
scFv-Fc: not shown
light: B1 light with D28S
notes: VH D55G, VL D28S (Kabat); also called MESO-C H1.6_L1.3; copies: 1 + 1 + 1

Kd (human MSLN antigen [1]): 0.469 nM
Response (human MSLN antigen [1]): 1.18
koff (human MSLN antigen [1]): 0.000199 s⁻¹
kon (human MSLN antigen [1]): 425000 M⁻¹ s⁻¹
Kd (cyno MSLN): 0.395 nM
Response (cyno MSLN): 1.07
koff (cyno MSLN): 0.000157 s⁻¹
kon (cyno MSLN): 399000 M⁻¹ s⁻¹
B3: XENP32556 (bispecific antibody)
Fab-Fc heavy chain (anti-MSLN VH): B1 heavy with I98R
scFv-Fc heavy chain (anti-CD3 H1.30_L1.47): not shown
light chain (anti-MSLN VL): B1 light
notes: 1+1 Fab-scFv-Fc bsAb; VH I94R, VL WT (Kabat); also called MESO-C H1.7_L1

Response (human MSLN antigen [2]): 0.0022
binding result (human MSLN antigen [2]): no binding
B4: XENP32943 (bispecific antibody)
heavy: B1 heavy with M50W
scFv-Fc: not shown
light: B1 light with Y94I
notes: VH M50W, VL Y94I as printed; also called MESO-C H1.3_L1.17; copies: 1 + 1 + 1

Kd (human MSLN antigen [1]): 1.6 nM
Response (human MSLN antigen [1]): 1.19
koff (human MSLN antigen [1]): 0.000773 s⁻¹
kon (human MSLN antigen [1]): 483000 M⁻¹ s⁻¹
Kd (cyno MSLN): 1.66 nM
Response (cyno MSLN): 1.1
koff (cyno MSLN): 0.000822 s⁻¹
kon (cyno MSLN): 495000 M⁻¹ s⁻¹
B5: XENP32551 (bispecific antibody)
Fab-Fc heavy chain (anti-MSLN VH): B1 heavy with W33Y
scFv-Fc heavy chain (anti-CD3 H1.30_L1.47): not shown
light chain (anti-MSLN VL): B1 light
notes: 1+1 Fab-scFv-Fc bsAb; VH W32Y, VL WT (Kabat); also called MESO-C H1.2_L1

Kd (human MSLN antigen [1]): 0.633 nM
Response (human MSLN antigen [1]): 1.03
koff (human MSLN antigen [1]): 0.000383 s⁻¹
kon (human MSLN antigen [1]): 605000 M⁻¹ s⁻¹
Kd (cyno MSLN): 1.2 nM
Response (cyno MSLN): 0.948
koff (cyno MSLN): 0.000762 s⁻¹
kon (cyno MSLN): 634000 M⁻¹ s⁻¹
B6: XENP32560 (bispecific antibody)
Fab-Fc heavy chain (anti-MSLN VH): B1 heavy
scFv-Fc heavy chain (anti-CD3 H1.30_L1.47): not shown
light chain (anti-MSLN VL): B1 light with H27Q
notes: 1+1 Fab-scFv-Fc bsAb; VH WT, VL H27Q (Kabat); also called MESO-C H1_L1.2

Kd (human MSLN antigen [1]): 0.283 nM
Response (human MSLN antigen [1]): 1.11
koff (human MSLN antigen [1]): 0.000161 s⁻¹
kon (human MSLN antigen [1]): 569000 M⁻¹ s⁻¹
Kd (cyno MSLN): 0.223 nM
Response (cyno MSLN): 1.04
koff (cyno MSLN): 0.000128 s⁻¹
kon (cyno MSLN): 575000 M⁻¹ s⁻¹
B7: XENP32559 (bispecific antibody)
Fab-Fc heavy chain (anti-MSLN VH): B1 heavy
scFv-Fc heavy chain (anti-CD3 H1.30_L1.47): not shown
light chain (anti-MSLN VL): B1 light with A25S
notes: 1+1 Fab-scFv-Fc bsAb; VH WT, VL A25S (Kabat); also called MESO-C H1_L1.1

Kd (human MSLN antigen [1]): 0.483 nM
Response (human MSLN antigen [1]): 1.13
koff (human MSLN antigen [1]): 0.000268 s⁻¹
kon (human MSLN antigen [1]): 555000 M⁻¹ s⁻¹
Kd (cyno MSLN): 0.414 nM
Response (cyno MSLN): 1.03
koff (cyno MSLN): 0.00023 s⁻¹
kon (cyno MSLN): 555000 M⁻¹ s⁻¹
B8: XENP32554 (bispecific antibody)
Fab-Fc heavy chain (anti-MSLN VH): B1 heavy with N54Q
scFv-Fc heavy chain (anti-CD3 H1.30_L1.47): not shown
light chain (anti-MSLN VL): B1 light
notes: 1+1 Fab-scFv-Fc bsAb; VH N53Q, VL WT (Kabat); also called MESO-C H1.5_L1

Kd (human MSLN antigen [2]): 90.4 nM
Response (human MSLN antigen [2]): 0.202
koff (human MSLN antigen [2]): 0.0383 s⁻¹
kon (human MSLN antigen [2]): 424000 M⁻¹ s⁻¹
B9: XENP32939 (bispecific antibody)
heavy: B1 heavy with M50W
scFv-Fc: not shown
light: B1 light with T31Q
notes: VH M50W, VL T37Q as printed; also called MESO-C H1.3_L1.13; copies: 1 + 1 + 1

Kd (human MSLN antigen [2]): 16.2 nM
Response (human MSLN antigen [2]): 0.169
koff (human MSLN antigen [2]): 0.0103 s⁻¹
kon (human MSLN antigen [2]): 635000 M⁻¹ s⁻¹
B10: XENP32938 (bispecific antibody)
heavy: B1 heavy with E62Y
scFv-Fc: not shown
light: B1 light with S92Y
notes: VH E61Y, VL S92Y as printed; also called MESO-C H1.13_L1.9; copies: 1 + 1 + 1
